The results in this text go back to paper PMC6513524, “Production and characterization of novel ssRNA bacteriophage virus-like particles from metagenomic sequencing data” (Journal of Nanobiotechnology, 2019).

Test [1] addresses NFZC01007443 coat protein (ssRNA phage NFZC01007443 (metagenomic sequence)). Description: non-reducing SDS-PAGE; purified VLPs in 20 mM Tris-HCl pH 8.0, 50% glycerol mixed with Laemmli buffer with or without 5% 2-mercaptoethanol, 10 min at 95 °C, 15% gel; disulfide-linked CP oligomers.
Test [2] concerns the target AVE018 coat protein (ssRNA phage AVE018 (metagenomic sequence)). Described as above.

Usually stoichiometry N stands for the number of molecules, sites or subunits per partner or assembly. “NFZC01007443 coat protein (natural protein)” came in with a stoichiometry N in test [1] of 5.
AVE018 coat protein (natural protein): the stoichiometry N in test [2] came to 2.
